The EC50 is the midpoint of the concentration-response curve.

The record followed here is patent publication US20250304706A1 (Astellas, published 2025).

Sequences and labels used below:
B1: BTE-0146 (bispecific antibody, human IgG1, kappa, L234A L235A)
heavy: QVQLQQWGAGLLKPSETLSLTCAVYGGSFSPYYWSWIRQPPGKGLEWIGEINHSGSTNYNPSLKSRVTISVDTSKNQFSLKLSSVTAADTAVYYCARRAGDFDYWGQGTLVTVSSASTKGPSVFPLAPSSKSTSGGTAALGCLVKDYFPEPVTVSWNSGALTSGVHTFPAVLQSSGLYSLSSVVTVPSSSLGTQTYICNVNHKPSNTKVDKKVEPKSCDKTHTCPPCPAPEAAGGPSVFLFPPKPKDTLMISRTPEVTCVVVDVSHEDPEVKFNWYVDGVEVHNAKTKPREEQYNSTYRVVSVLTVLHQDWLNGKEYKCKVSNKALAAPIEKTISKAKGQPREPQVYTLPPSRDELTKNQVSLSCAVKGFYPSDIAVEWESNGQPENNYKTTPPVLDSDGSFFLVSKLTVDKSRWQQGNVFSCSVMHEALHNHYTQKSLSLSPGK
light: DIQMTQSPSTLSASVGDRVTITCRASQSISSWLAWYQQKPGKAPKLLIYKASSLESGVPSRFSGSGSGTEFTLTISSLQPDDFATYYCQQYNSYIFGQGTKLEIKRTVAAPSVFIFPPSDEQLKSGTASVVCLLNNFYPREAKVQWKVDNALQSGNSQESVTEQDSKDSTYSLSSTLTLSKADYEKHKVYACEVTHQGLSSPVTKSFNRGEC
scFv: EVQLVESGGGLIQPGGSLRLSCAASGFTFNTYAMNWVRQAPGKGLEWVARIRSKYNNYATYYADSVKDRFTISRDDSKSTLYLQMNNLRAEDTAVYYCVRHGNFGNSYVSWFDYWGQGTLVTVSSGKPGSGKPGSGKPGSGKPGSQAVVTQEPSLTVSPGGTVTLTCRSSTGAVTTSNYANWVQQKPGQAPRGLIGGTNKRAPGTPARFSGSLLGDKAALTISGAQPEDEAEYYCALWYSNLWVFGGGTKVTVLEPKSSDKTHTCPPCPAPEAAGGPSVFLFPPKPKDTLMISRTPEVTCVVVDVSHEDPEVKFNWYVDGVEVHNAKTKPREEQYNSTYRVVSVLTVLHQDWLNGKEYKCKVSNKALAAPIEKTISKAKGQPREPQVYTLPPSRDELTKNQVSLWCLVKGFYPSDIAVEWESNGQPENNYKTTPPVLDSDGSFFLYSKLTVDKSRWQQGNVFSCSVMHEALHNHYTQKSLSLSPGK
notes: anti-CD37/anti-CD3
B2: BTE-0148 (bispecific antibody, human IgG1, kappa, L234A L235A)
heavy: QVQLQQWGAGLLKPSETLSLTCAVYGGSFSPYYWSWIRQPPGKGLEWIGEINHSGSTNYNPSLKSRVTISVDTSKNQFSLKLSSVTAADTAVYYCARRAGDFDYWGQGTLVTVSSASTKGPSVFPLAPSSKSTSGGTAALGCLVKDYFPEPVTVSWNSGALTSGVHTFPAVLQSSGLYSLSSVVTVPSSSLGTQTYICNVNHKPSNTKVDKKVEPKSCDKTHTCPPCPAPEAAGGPSVFLFPPKPKDTLMISRTPEVTCVVVDVSHEDPEVKFNWYVDGVEVHNAKTKPREEQYNSTYRVVSVLTVLHQDWLNGKEYKCKVSNKALAAPIEKTISKAKGQPREPQVYTLPPSRDELTKNQVSLSCAVKGFYPSDIAVEWESNGQPENNYKTTPPVLDSDGSFFLVSKLTVDKSRWQQGNVFSCSVMHEALHNHYTQKSLSLSPGK
light: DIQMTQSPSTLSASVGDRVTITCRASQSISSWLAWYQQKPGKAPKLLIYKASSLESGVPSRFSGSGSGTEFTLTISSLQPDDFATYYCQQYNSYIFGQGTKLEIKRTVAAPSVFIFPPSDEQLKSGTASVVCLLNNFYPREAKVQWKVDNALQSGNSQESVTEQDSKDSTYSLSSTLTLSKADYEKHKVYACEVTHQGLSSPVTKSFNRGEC
scFv: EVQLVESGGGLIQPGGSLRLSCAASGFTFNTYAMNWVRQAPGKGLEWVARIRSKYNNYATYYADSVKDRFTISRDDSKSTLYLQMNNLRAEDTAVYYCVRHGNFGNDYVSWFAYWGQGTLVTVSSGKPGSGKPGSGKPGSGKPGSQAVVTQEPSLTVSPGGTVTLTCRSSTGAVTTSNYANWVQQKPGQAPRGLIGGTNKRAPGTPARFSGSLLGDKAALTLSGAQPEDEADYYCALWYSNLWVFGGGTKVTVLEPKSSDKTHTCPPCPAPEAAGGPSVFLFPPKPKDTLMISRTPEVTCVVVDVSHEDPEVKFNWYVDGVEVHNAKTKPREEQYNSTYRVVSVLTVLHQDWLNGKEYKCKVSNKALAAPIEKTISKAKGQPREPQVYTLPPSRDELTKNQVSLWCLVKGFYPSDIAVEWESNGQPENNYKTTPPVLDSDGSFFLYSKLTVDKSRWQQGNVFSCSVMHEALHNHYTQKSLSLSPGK
notes: anti-CD37/anti-CD3
B3: BTE-0149 (bispecific antibody, human IgG1, kappa, L234A L235A)
heavy: QVQLQQWGAGLLKPSETLSLTCAVYGGSFSPYYWSWIRQPPGKGLEWIGEINHSGSTNYNPSLKSRVTISVDTSKNQFSLKLSSVTAADTAVYYCARRAGDFDYWGQGTLVTVSSASTKGPSVFPLAPSSKSTSGGTAALGCLVKDYFPEPVTVSWNSGALTSGVHTFPAVLQSSGLYSLSSVVTVPSSSLGTQTYICNVNHKPSNTKVDKKVEPKSCDKTHTCPPCPAPEAAGGPSVFLFPPKPKDTLMISRTPEVTCVVVDVSHEDPEVKFNWYVDGVEVHNAKTKPREEQYNSTYRVVSVLTVLHQDWLNGKEYKCKVSNKALAAPIEKTISKAKGQPREPQVYTLPPSRDELTKNQVSLSCAVKGFYPSDIAVEWESNGQPENNYKTTPPVLDSDGSFFLVSKLTVDKSRWQQGNVFSCSVMHEALHNHYTQKSLSLSPGK
light: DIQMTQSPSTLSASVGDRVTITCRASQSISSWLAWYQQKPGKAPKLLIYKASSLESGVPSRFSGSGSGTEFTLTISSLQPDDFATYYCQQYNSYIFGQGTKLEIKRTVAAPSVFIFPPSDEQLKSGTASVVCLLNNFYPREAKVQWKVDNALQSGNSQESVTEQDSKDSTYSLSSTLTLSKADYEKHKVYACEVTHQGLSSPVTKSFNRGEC
scFv: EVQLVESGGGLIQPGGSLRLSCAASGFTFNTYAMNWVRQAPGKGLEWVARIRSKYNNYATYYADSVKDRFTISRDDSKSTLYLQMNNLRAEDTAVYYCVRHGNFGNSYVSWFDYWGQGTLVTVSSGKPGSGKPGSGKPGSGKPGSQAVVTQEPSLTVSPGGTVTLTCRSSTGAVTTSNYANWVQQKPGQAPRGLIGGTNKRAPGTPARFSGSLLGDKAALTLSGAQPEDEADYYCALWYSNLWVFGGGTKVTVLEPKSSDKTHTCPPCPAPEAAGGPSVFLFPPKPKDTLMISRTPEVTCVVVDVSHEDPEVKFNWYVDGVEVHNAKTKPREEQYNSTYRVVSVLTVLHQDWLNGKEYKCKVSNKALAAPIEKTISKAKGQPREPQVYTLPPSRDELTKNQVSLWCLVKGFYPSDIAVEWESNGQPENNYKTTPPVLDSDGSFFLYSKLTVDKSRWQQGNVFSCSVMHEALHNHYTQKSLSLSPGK
notes: anti-CD37/anti-CD3
B4: BTE-0147 (bispecific antibody, human IgG1, kappa, L234A L235A)
heavy: QVQLQQWGAGLLKPSETLSLTCAVYGGSFSPYYWSWIRQPPGKGLEWIGEINHSGSTNYNPSLKSRVTISVDTSKNQFSLKLSSVTAADTAVYYCARRAGDFDYWGQGTLVTVSSASTKGPSVFPLAPSSKSTSGGTAALGCLVKDYFPEPVTVSWNSGALTSGVHTFPAVLQSSGLYSLSSVVTVPSSSLGTQTYICNVNHKPSNTKVDKKVEPKSCDKTHTCPPCPAPEAAGGPSVFLFPPKPKDTLMISRTPEVTCVVVDVSHEDPEVKFNWYVDGVEVHNAKTKPREEQYNSTYRVVSVLTVLHQDWLNGKEYKCKVSNKALAAPIEKTISKAKGQPREPQVYTLPPSRDELTKNQVSLSCAVKGFYPSDIAVEWESNGQPENNYKTTPPVLDSDGSFFLVSKLTVDKSRWQQGNVFSCSVMHEALHNHYTQKSLSLSPGK
light: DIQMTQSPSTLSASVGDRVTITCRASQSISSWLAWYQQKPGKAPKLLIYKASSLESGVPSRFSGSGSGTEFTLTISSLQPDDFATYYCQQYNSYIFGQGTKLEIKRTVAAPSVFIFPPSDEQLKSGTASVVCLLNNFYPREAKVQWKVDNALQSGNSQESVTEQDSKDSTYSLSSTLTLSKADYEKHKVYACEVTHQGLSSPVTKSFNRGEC
scFv: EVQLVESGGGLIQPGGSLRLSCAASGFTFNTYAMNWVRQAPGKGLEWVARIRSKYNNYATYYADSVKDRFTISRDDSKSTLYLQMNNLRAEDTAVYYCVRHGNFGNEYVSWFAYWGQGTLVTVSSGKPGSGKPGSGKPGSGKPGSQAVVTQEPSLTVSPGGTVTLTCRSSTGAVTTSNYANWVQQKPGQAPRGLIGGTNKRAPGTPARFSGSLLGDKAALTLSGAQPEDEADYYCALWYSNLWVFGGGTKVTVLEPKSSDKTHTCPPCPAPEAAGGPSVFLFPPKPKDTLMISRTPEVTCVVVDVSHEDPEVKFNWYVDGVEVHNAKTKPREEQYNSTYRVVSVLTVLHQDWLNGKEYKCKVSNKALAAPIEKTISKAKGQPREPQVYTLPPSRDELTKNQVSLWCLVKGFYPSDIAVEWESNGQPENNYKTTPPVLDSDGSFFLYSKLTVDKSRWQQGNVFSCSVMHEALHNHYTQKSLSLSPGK
notes: anti-CD37/anti-CD3
B5: BTE-0152 (bispecific antibody, human IgG1, kappa, L234A L235A)
heavy: QVQLQQWGAGLLKPSETLSLTCAVYGGSFSPYYWSWIRQPPGKGLEWIGEINHSGSTNYNPSLKSRVTISVDTSKNQFSLKLSSVTAADTAVYYCARRAGDFDYWGQGTLVTVSSASTKGPSVFPLAPSSKSTSGGTAALGCLVKDYFPEPVTVSWNSGALTSGVHTFPAVLQSSGLYSLSSVVTVPSSSLGTQTYICNVNHKPSNTKVDKKVEPKSCDKTHTCPPCPAPEAAGGPSVFLFPPKPKDTLMISRTPEVTCVVVDVSHEDPEVKFNWYVDGVEVHNAKTKPREEQYNSTYRVVSVLTVLHQDWLNGKEYKCKVSNKALAAPIEKTISKAKGQPREPQVYTLPPSRDELTKNQVSLSCAVKGFYPSDIAVEWESNGQPENNYKTTPPVLDSDGSFFLVSKLTVDKSRWQQGNVFSCSVMHEALHNHYTQKSLSLSPGK
light: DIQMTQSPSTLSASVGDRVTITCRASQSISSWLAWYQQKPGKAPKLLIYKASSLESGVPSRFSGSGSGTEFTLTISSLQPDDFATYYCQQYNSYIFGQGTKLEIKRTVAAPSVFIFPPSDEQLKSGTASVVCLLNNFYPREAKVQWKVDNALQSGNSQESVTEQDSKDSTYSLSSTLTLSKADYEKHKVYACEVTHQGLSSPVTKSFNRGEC
scFv: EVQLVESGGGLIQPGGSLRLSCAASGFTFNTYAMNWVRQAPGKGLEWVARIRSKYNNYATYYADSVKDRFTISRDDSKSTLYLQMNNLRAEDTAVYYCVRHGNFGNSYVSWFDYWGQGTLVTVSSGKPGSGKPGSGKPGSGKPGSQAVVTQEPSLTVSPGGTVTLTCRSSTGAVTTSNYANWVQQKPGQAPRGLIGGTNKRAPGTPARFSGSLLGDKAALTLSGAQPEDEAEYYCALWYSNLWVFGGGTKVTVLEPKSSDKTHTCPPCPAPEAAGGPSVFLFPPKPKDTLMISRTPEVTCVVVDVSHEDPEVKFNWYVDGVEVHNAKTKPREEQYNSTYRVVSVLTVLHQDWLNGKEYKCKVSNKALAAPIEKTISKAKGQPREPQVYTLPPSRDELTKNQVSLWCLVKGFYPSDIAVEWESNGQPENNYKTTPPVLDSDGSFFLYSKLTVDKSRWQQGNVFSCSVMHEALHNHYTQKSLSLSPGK
notes: anti-CD37/anti-CD3

The target in the assay is T1, CD3εδ complex protein (human; alpaca, UniProt P07766 23-126; P04234 22-105).
T1 construct: they are not part of the secreted protein; also called human CD3; CD386 complex protein
T1 sequence (P07766 23-126 limits assumed, stated change not applied, form in doubt, chain 1 of 2): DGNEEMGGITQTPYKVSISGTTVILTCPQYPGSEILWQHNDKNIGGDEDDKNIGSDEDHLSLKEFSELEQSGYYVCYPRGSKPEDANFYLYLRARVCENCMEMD
T1 sequence (P04234 22-105 limits assumed, stated change not applied, form in doubt, chain 2 of 2): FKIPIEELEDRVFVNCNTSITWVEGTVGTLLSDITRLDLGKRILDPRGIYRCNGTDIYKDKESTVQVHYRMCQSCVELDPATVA
Description: ELISA, CD3 complex immobilized. The protocol:
Binding activities of the anti-TSPAN8/anti-CD3 bispecific antibodies BTE-0001 to BTE-0067 to CD3 were evaluated by the ELISA. ELISA was performed according to a conventional method. The […] complex protein obtained in Example 1-3 was immobilized on a plate. BTE-0001 to BTE-0067 were used as the test antibodies. As a secondary antibody, Goat anti-Human IgG Fc, Multi-Species SP ads-HRP (2014-05, available from SouthernBiotech) was used. TMB+Substrate-Chromogen (S1599, available from Dako) was used as the detection reagent. Infinite M200pro (available from Tecan) was used to measure the absorbance. The EC50 values were calculated using variable slope model (four parameters) in GraphPad Prism with the maximum value in the same plate fixed at the top and the minimum value in the blank in the same plate fixed at the bottom. Since BTE-0001 was always measured in each plate as a control, only the EC50 value of BTE-0001 was expressed as the average value of a plurality of plates. […]
Background: ELISA stands for enzyme-linked immunosorbent assay.
In the case of B1, the EC50 came to 0.488 µg/mL. The same measure for B2: 0.0364 µg/mL. B3: the EC50 amounted to 0.209 µg/mL. The same measure for B4: 0.0317 µg/mL; for B5: 0.36 µg/mL.
